System: MS2 coat protein
Assay: apparent KD of MS2 coat protein; higher = weaker reporter binding
Details: Eterna round: R107
Procedure, shortened: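 Titrations with SNAP-549-labelled MS2 coat protein ran in twofold steps from 0.7 or 1.5 nM to 3 µM, each step taking 0.8–1.5 h at the start and 10–20 min toward the end. The targets were designed RNA switches transcribed on-chip from Illumina sequencing clusters, held in 100 mM Tris-HCl pH 7.5, 80 mM KCl, 4 mM MgCl2, without or with constant ligand. Apparent KD was taken per design as the median of normalised cluster binding-curve fits.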

[1] = input ligand: theophylline 20 uM
[2] = input ligand: theophylline 2 mM
[3] = input ligand: tryptophan 2.4 mM

Sequence	apparent KD of MS2 coat protein (input ligand: arginine 13.2 mM)	apparent KD of MS2 coat protein [1]	apparent KD of MS2 coat protein [2]	apparent KD of MS2 coat protein (input ligand: none)	apparent KD of MS2 coat protein [3]
UAAUCAGUGCCGGUUCUCGGAUCCUCAUGUCGAGGACCGGUACGGCCGCCACUCGAAACAUGAGGAUCACCCAUGUAAUAAUAAU [#09 Exclusion Tryptophan A]	44.2 nM	116 nM	103 nM	–	–
GAUUACAUGAGGAUCACCCAUGUAACUGAAGGAGCGGUAAUAAAGCCAGGUAGGUCGCAGAACGACAUGUGGUUCAUCCAUGUAA [#15 Exclusion - Arginine A]	14.3 nM	46.9 nM	35.5 nM	39.1 nM	30.4 nM
UGGUACAUGAGGAUCACCCAUGUUCCAGAUACCAGUGUCCCGCUGCACCCUUGGCAGCUGGUGGUACAUGAGGAUCACCCAUGUG [Exclusion Theophylline A GF11]	24.3 nM	42.7 nM	56.4 nM	34.1 nM	39 nM
GUUGUAUACUCGGCCGCCACUGAGAGAGUCAUGUGAACAUGAGGAUCACCCAUGUAAUAUAUAUACAGGACCGGGAGUGUGGUAA [4.H]	14.5 nM	16.5 nM	14.4 nM	16.8 nM	15.8 nM
GCUAGGUCAUCGGCCGCCACUAUUAGUGGUUCGAACAUGAGGAUCACCCAUGUGCCACAUGCGCAUAGGACCGGGAUGACCUAGC [SSTB NP+V+V2 #8]	11.8 nM	18.2 nM	13.7 nM	–	–
UUGUUAUACGGAAGGAGCGUGUAAGAUUAAGAACAUGAGGAUCACCCAUGUUUUAAGGGAACACAGGUAGGUCGCCGUAUAGUGG [11.P]	16.4 nM	13.2 nM	11.3 nM	10 nM	14.7 nM
AGUACCAAUGAGGAUACCAGAGUGCGACGCCGAAACCUUGACAUGAGGAUCACCCAUGUACUCCCUUGGCAGCCUGUACUUGCCA [theeternabot_exclusion_MS2_Theo_B_17]	22.8 nM	40.7 nM	–	–	34.9 nM
AAGGAACAUGAGGAUCACCCAUGUACCGAAGGAGCGGCAGAGAUGCCAGGUAGGUCGCGGUACUUGCCGGGUCAUUCAUGCAGAG [Arraiste]	39.1 nM	30.6 nM	32.8 nM	26.3 nM	23.9 nM
CCUAUGCAGUCGGCCGCCACUGAACAUGAGGAUCACCCAUGUAAUUAAAAUUAAGGUCCUAAAAUCAGGACCGGGACUGUAUAGG [Ex Tryptophan B 6]	37.6 nM	43.3 nM	56.6 nM	–	–
AACCGAGGCUAUCCUCUCCGCCUAUGUGAUACCAGAAUAAUUUUAUUCCCUUGGCAGCAUGACAUGAGGAUCACCCAUGUCUCUU [SSTheo A #11]	15.2 nM	19.4 nM	–	–	17.3 nM
ACGAACGCACCUGAGGAUCACCCAGGUGAUACCAGCCUGGAAACAGGCCCUUGGCAGCACCUAAAAUAAAGGUAACGUUCGAAUA [TheoAX7 #MicroSwitchBubble #AlternativeMS2]	41.1 nM	165 nM	173 nM	74.2 nM	61.9 nM
AUUUACAUGGUCAUAUAUAUAUCGUCAGAUACCAGACGAGAUAUUGUCCCUUGGCAGCUGUUACAUGAGGAUCACCCAUGUAAUU [JR_Nu_ExcTheophyA_Sub021]	41 nM	56.4 nM	–	–	64.7 nM
CCUAUGCAGUCGGCCGCCACUGAACAUGAGGAUCACCCAUGUUAUUAUAAAUAUGGUCCUAAAAUCAGGACCGGGACUGUAUAGG [Ex Tryptophan B 8]	42.7 nM	67.9 nM	90 nM	–	–
GCACUACAUGAGGAUCACCCAUGUGCAGAUACCAGAGGUGUAUGCCUCCCUUGGCAGCUGAGUAGCUCUGGAGGCCUAUUGGUUU [Same State Theophylline A GF15]	15.7 nM	20 nM	–	–	16.8 nM
GAGACGUCGGGAAGGAGCGCAUCCAAACCACACAUGAGGAUCACCCAUGUAUAAAUAUGCAUGCAGGUAGGUCGCCCGGUGUCCC [Diaxeon]	59.7 nM	125 nM	97.8 nM	87.2 nM	75.1 nM
AUAACAUGAGGAUCACCCAUGUAAGCUGAAGGAGCGGACGAAAGUCCAGGUAGGUCGCAGCGCUCCUUCACCUCAUGAGAAGGAG [(M1)-(M2)-(Arg1)-(Arg2)-(A)'-(M)'-(A)''_Design2]	23.4 nM	31.4 nM	25.3 nM	23 nM	22.4 nM
AGUUGCGUUGGAAGGAGCGGCAUGUGUGGGCCUCCUUACAAUACAUGAGGAUCACCCAUGUGCCAGGUAGGUCGCCAACACAGGU [Tiedmaqu]	47.9 nM	79.8 nM	96 nM	40.2 nM	54.8 nM
AAUUGGGUUGGUGAGGUGGUUGGAGGCGAUACCAGCGUGGAAACACGCCCUUGGCAGCGCCAGGACAUGAGGAUCACCCAUGUUC [Ostrava]	19.6 nM	36 nM	–	–	22.1 nM
AGACUGUCUUCGGACAGUCCGGACAGCCCGCGAGGACCGGUACGGCCGCCACUCGCGUGAGGAUCACCCAUGCGAGGCUGUCCGA [Omei Tryp A Exc A v1]	27.5 nM	40.1 nM	46 nM	–	69.9 nM

Sequence	apparent KD of MS2 coat protein (input ligand: arginine 13.2 mM)	apparent KD of MS2 coat protein [1]	apparent KD of MS2 coat protein [2]	apparent KD of MS2 coat protein (input ligand: none)	apparent KD of MS2 coat protein [3]
UGGGUAGCAUAGAUUGAUAGUUAAACUGAAGGAGCGAGAAUAAUCUCAGGUAGGUCGCAGACAUGAGGAUCACCCAUGUAGAUGG [Same State Arginine A GF16]	47 nM	129 nM	88.8 nM	122 nM	68 nM
AGAGCAUUGACGGCCGCCACUUAUGUCACAUGAGGAUCACCCAUGUGAUGGGUGAUAGCCCGGUUGAGGACCGGGUCAAUGCUCA [Omei Tryp SS B v6]	14.8 nM	18.5 nM	15.2 nM	–	–
UGUAACAUGAGGAUCACCCAUGUGAGUGAUACCAGACUAGUGUUGGUCCCUUGGCAGCACGCUGGGCGAGUGUGUAGUCUAUGCG [Same State - Theophylline A (Freestyle 17)]	64.5 nM	100 nM	–	–	80.5 nM
UGCUAGUGAUCGGCCGCCACUGGCACCUUGAGGAUCCUGCUAAAGUACAUGAGGAUCACCCAUGUCAGGACCGGGAUCAUCAGUG [Onveusonri]	9.02 nM	11.8 nM	10.8 nM	–	–
UCUUUUUUCUUUUCUUCUUUCGGUUCUUUUCGAGGACCGGUACGGCCGCCACUCGAAACAUGAGGAUCACCCAUGUUUUGGUUUU [Trypto a]	15.9 nM	17.6 nM	13.7 nM	–	–
UGGUACAUGAGGAUCACCCAUGUCCUCAUCCGAGGACCGGUACGGCCGCCACUCGAAAUUGCGAUCGGCACAAAACAAAUGCUUG [theeternabot_sameState_MS2_Trp_A_39]	87.8 nM	205 nM	179 nM	–	–
UACAUGAGGAUCACCCAUGUCCCAUGUGAACGAGGACCGGUACGGCCGCCACUCGACCGAGGCGGCACAUGAGGAUCACCCGCAU [whbob_SS_trypto A_2s15]	121 nM	917 nM	1140 nM	–	–
ACACAUGAGGAUCACCCAUGUGCGCUGGAAGGAGCGCAGAAUCAUGCAGGUAGGUCGCCAGUGCCCUUUGAUAAAGGGAAAAGAG [Reor]	52.2 nM	99.7 nM	76.9 nM	43.3 nM	64.3 nM
UGUAGUACCAGACAUGAGGAUCACCCAUGUCGAGGACCGGUACGGCCGCCACUCGGCAGUUUGCGUCCUCAGGUACUCCGGGUAA [Dianreti]	14.4 nM	18.5 nM	14.9 nM	–	–
UCGUGUGUUUCGGAUACCAGUGAAAUCGAUACAUGAGGAUCACCCAUGUGAGAGGAUGUACACCCUUGGCAGCUGGCUGUUGCGG [zezmullin]	24 nM	36.2 nM	–	–	34.2 nM
CGGUAACCACAUGAGGAUCACCCAUGUGAAGGAGCGGCGAAUAAGCCAGGUAGGUCGCGCAUGAAUAAAUCAUGUAGGUGCCGAA [XArg-A 15 NuPack]	31.2 nM	69.7 nM	156 nM	48.4 nM	99.8 nM
UUGUUGUACGGAAGGAGCGUGUAAGAUUAAGAACAUGAGGAUCACCCAUGUUUUAAGGGAACACAGGUAGGUCGCCGUGUGGUGG [11.Q]	14 nM	20 nM	16.4 nM	15.1 nM	16.2 nM
AAUAAGCAGCUGCCUUCCUCAUGAGCAGAUACCAGCUAGGAAACUAGCCCUUGGCAGCUGCAACAUGAGGAUCACCCAUGUAAUA [(T)'-(M)'-(T1)-(T2)-(M1)-(M2)_Design4]	22.4 nM	81.2 nM	–	–	43.7 nM
CUGCCAUGCAGGGAUACCAGUGCGUUCAGAACAUGAGGAUCACCCAUGUCGUCUGCCGAUCACCCUUGGCAGCUCUGCAUGGCAG [#05 Same State - Theophylline B]	9.22 nM	9.45 nM	9.73 nM	9.69 nM	9.91 nM
AAUAACAUGAGGAUCACCCAUGUAAAAGAUACCAGAUGCAUGAUGAUCCCUUGGCAGCUUAACGCUGAUUGGAAACAAUCAGCGA [Mat - Same State Theophlline A - Mod of Eli - D9]	175 nM	62.1 nM	–	–	14.7 nM
GGAUAGGACACGGCCGCCACUGCCUAGGAUACUAGCAACAUUUGGGUACAAGAGGAUCACCCUUGUAGGACCGGGUGUCCUAUCG	27.1 nM	38.6 nM	29.3 nM	25 nM	26 nM
GGGUACAUCGCGGCCGCCACUCAUGUAAAUACAUGAGGAUCACCCAUGUCGAUGGAGACAUCGGAGAGGACCGGGCGAUGUACCG	224 nM	352 nM	540 nM	398 nM	264 nM
UAUCUACAUGAAUAGGUUAUUCGAUUAUUUCGAGGACCGGUACGGCCGCCACUCGUUAACAUAUACAUGAGGAUCACCCAUGUUA [JR_Nu_SSTryptoA_Sub024]	16 nM	22.7 nM	21.5 nM	–	–
ACAUGAGGAUCACCCAUGUCUGCCACUGAUACCAGCGGAAGCCAACGCCCUUGGCAGCAGAACAUGAGGAUCACCCAUGUAGGCA [Same State Theophylline A GF26]	52.8 nM	180 nM	–	–	256 nM
